Measured values from the nanobody polyreactivity screen of Harvey et al. (2022).

assay: yeast display, Sf9 membrane polyspecificity reagent, FACS + sequencing; frameworks hold sequencing errors
In short: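 A nanobody's polyreactivity label depends on the gate it was sorted from. Yeast display cells were stained with 10% biotinylated, detergent-solubilized Sf9 membrane reagent for 1 hour at 4 °C, enriched on streptavidin microbeads and sorted by FACS. The low and high (top ~1%) gates were set on anti-HA fluorescence for expression and streptavidin fluorescence for reagent binding.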

Sequence | polyreactivity (PSR sort gate)
QVQLVESGGGLVQAGGSLRLSCAASGRTFYPNAMGWYRQAPGKERELVAAISYSGGSTYYADSVKGRFTISRDNAKNTVYLQMNSLKPEDTAVYYCAAEFSLDKRDYWGQGTQVTVSS | low polyreactivity
QVQLVESGGGLVQAGGSLRLSCAASGLIFRYYAMGWYSKAPGKERELVAVINYSGGRTYYADSVKGRFTISRDNAKNTVYLQMNSLKPEDTAVYYCAASFASKYEYWGQGTQVTVSS | high polyreactivity
QVQLVESGGGLVQAGGSLRLSCAASGIIFLVYARGWYRKAPGKVRELVAGISGSATSTNYADSVKGRFTISRDNAKNTVFLQMNSLKPEDTAVYYCAPEPDHVADSHSGYDYWGQGTQVTVSS | low polyreactivity
QVQLVESGGGLVQAGGSLRLSCAASGITFRSNAMGWYRQAPGKERELVATISYRGASTYYADSVKGRFTISRDNAKNTVYLQMNSLKPEYTSVYYCNVRNRYWRSRVDYWGQGTQVTVSS | high polyreactivity
QVQLVESGGGLVQAGGSLRLSCAASGRTFPGYAMGWYRQATGKERELVAGISYRGGSTYYADSVKGRITISRDTAKNTVYFQINSLKPVDTAVYYCARDYSRHKGDYWGQGTQVTVSS | low polyreactivity
QVQLVESGGGLVQAGGRLRLTCAASGSIFFYAMGWYRQAPGKERELVAGITTSGGSTYYADSVKGRFTISRDNAKNTVYLQMYSLKPEYTAVYYCAADGSRAGQEGNDYWGQGTQVTVSS | low polyreactivity
QVQLVESGGGLVQAGGSLRLSCAASGSIFRANALGWYRPAPGKERELVAAISASGGRTYYADSVKGRFTISRDNAKNTVYLQMNSLKPEDTAVYYCNAYYGYLYHYTYDYWGQGTQVTVSS | high polyreactivity
QVQLVESGGGLVQAGGSLRLSCAASGSIFPLYAMGWYRQAPGKERELVAAISWSGGSTYYADSVKGRFTISRDNAKNTVYLQMNSLKPEDTAVYYCATLYISTSGYIYEGDYWGQGTQVTVSS | high polyreactivity
QVQLVESGGGLVQARGSLRLSCAASGRTYAGYAMGWYRQAHGKERELVASITSGGRTYYADSVKGRFTISRDNAKNTVYLQMNSLKPEDTAVYYCNKVYKSYYWGGYDWGQGTQVTVSS | high polyreactivity
QVQLVESGGGLVQAGGSLRLSCAASGRIFGGNADMGWDRQAPGKERELVAVIDWSGGSTYYADSVKGRFTISRDNAKNTVYFQMHSLKPEDTAVYYCNADAPRSSGDYGQGDYWGQGTQVTVSS | high polyreactivity
QVQLVESGGGIVQAGGSLRLSCAASGRIFRSYTMGWYRQAPGKERELVAAISWTGGRTYYADSVKGRFTISRDNAKNTVYLQMNSLKPEDTAVYYCAATNRYYIYDYWGQGTQVTVSS | high polyreactivity
QVQLVESGGGLVQAGGSLRLSCAASGRIFGNYAKGWYRQAPGKERELVAAISGGGSTYYADSVKGRFTISRDNAKNTVYLQMNSLKPEDTAVYYCAARFLSSVFGRKGGYWGQGTQVTVSS | low polyreactivity
QVQLVESGGGLGQAGGSLRLSCSASGRIFDIYGMGWYRQAPGKERELVAAITSGGDTNYADSVKGRFTISRDNAKNTVYLQMNSLKPEDTAVYYCAARIRDQDRYDYDYWGQGTQVTVSS | low polyreactivity
QVQLVESGGGLVQAGGSLRLSCAASGFTFNNYAMGWYRQAPGKERELVAAISSVGRTYYADSVKGRFTISRDNAKNTVYLQLNSLKPEDTAVYYCAVVYPARGSGNDSWGQGTQVTLSS | high polyreactivity
QVQLVESGGGLVQAGGSLRLSCAASGRIFPSYAMGWYRQAPGKERELVAAISYSGASTYYADSVKGRFTISRDYAKNTVSLQMNSLKPEDTAVYYCNQLVEEDYWGQGTQVTVSS | low polyreactivity
QVQLVESGGGLVQAGGSLRLSCAASGRIFDVYAMGWYRQAPGKERELVAAITWSGTSTYYADSVKGRFTISRDNAKNTVYLQKNSLKPEDTAVYYCAAEVAYTDTEYFWYYYWGQGTQVTVSS | high polyreactivity
QVQLVESGGGLVQAGGSLRLSCASSGNTFKYDAMGWYRQAPGKERELVAAITWNGARTYYADSVKGRFTISRDNANYTGYLQMNRLKAEVTAVYYCNARQGYRFDYWGQGTQVSVSS | high polyreactivity
QVQLVESGAGLVQAGGSLRLSCAASGRIFTFNTMGWYRQAPGKERELVAAITSSSARTYYADSVKGRFTISRYNAKNTVYLQMNSLKPEDTAVYYCATRDWVGSVRMGYWGQGTQVTVSS | high polyreactivity
QVQLVESGGGLVQAGGSLRLSCAASGFTLLTYVMGWYIQAPGKERELVAAISKSGSRTYYADSVKGRFTISRDNAKNTVYLQMNSLKPEDTAVYYCAADTSAYRYDYWGQGTQVTVSS | high polyreactivity
QVQLVESGGGLVKAGGSLRLSCAASGIPFTFNAMGWYRQAPGKERELVAAITWSGGSTFYADSVKARFTISRDNAKITVYLQMNSLKQEDTAVYYCARETELYVRWLDYWGQGTQGTVSS | low polyreactivity
QVQLVVSGGGLVQAGGSLRLSCAASGRTFRSYAMGWYRQEPGKERELVAAISDGGSTNYADSVKGRFTISRDNAKNTVYLQMNSLKPEDTAVYYCAAEFFFAVFRFYYWGQGTQVTVSS | low polyreactivity
QVQLVESGGGLVQAGGSLRLSCAASGFIIIGYVMGWYRQAPGKERELVAAITSSGGSTYYEDSVKGRFTISRDNAKNTVYLQMNSLKPEDTAVYYCAAEYYLLWSGMEYWGQGTQVTVSS | low polyreactivity

Sequence | polyreactivity (PSR sort gate)
QVQLVDSGGGLVQAGGSLRLSCAASGFIFRSYALGWYRQAPGKERELVAAISRRGGSTYYADSVKGRFTISRDHAKNTVYLQMNSLKPEDTAVYYCAAESRGVYGYAQSDFWGQGTQVTVSS | high polyreactivity
QVQLVESGGGLVQAGGSLRLSCAASGSTFRRNAMGWYRQAPGKERELVAAITSGGSTYYADSVKGRFTISRDNAKNTVYLQMNSLKPEDTAVYYCNRLYRWKKPLDYDYWGQGTQVTVSS | high polyreactivity
QVQLVESGGGLVQAGGSLRLSCAASGRIFVPYAMGWYRQAPGKERELVAAISRNTGSTYYADSVKGRFTISRDNAKNTVYLQMNSLKPEDTAVYYCAAGSRVRYDGGYKINGYWGQGTQVTVSS | high polyreactivity
QVHLVESGGGLVQAGGSLRLSCAASGRTFGYYAMGWYRPAPWKEWELVAAITQSGGSTYYADSVKGRFTISRDTAKITVYLQMHSLKPEDTAVYYCAADDKYFYPGNGYWGQGTQVTVSS | high polyreactivity
QVHLVESGGGLVQAGGSLRLSSAASGRTFTAYTMGSYRQAPGKEREMVASISSGVTYADSVKGRFTISRDNAKNTVYLQMNSLKTVDTAVYYCAARLWYVQGYVPYVHHRFDYWGQGTQVTVSS | low polyreactivity
QVQLVDSGGGLVQAGGILRLSCAASGRTISSYAMGWYRQAPGKERELVAAITRTGGRTYYAYSVKGRFTISRDNAKNTVYLQMNSLKPEDTAVYYCAATGIRYGVKYYYWGQGTQVTVSS | high polyreactivity
QVQLVESGGGLVQAGGSLRLSCAASGFTFYSYAMGWYRQAPGKERELVAAISRSGGSTRYADSVKGRFTISRDNAKNTVYLQMNSLKPEDTAVYYCAARSWYPYRYSSLYYWGQGTQVTVSS | high polyreactivity
QVQLVESGGGLVQAGGSLRLSCAASGSIFVPYAMGWYRQAPGKERELVAAISRRGGRTNYADSVKGRFTISRDNAKNTVYLQMNSLKPEDTAVYYCAKYPIYYGLTRYGYWGHGTQVTVSS | high polyreactivity
QVQLVESGGGLVQAGGSLRLSCAASGSIFWWNAKGWYRQAPGKERELVAAINWSTGRTYYADSVKGRFTISRDNAKNTVYLQMNSLKPEDTAVYYCNADSKSSYYWYLWYNYWGQGTQVTVSS | low polyreactivity
QVQLVESGGGLVQAGGSLRLSCAASVITFGANTMGWDIQAPGKERELVATLTSSGGSTYYADSVKGRFTISRDNAKNTVYLQMNSLKPEDTAVYYCAASDLRDRGNYVYLPSEYWGLGTQVTVSS | low polyreactivity
QVQLVETGGGIVQAGGSLRLSCAAYGRILWYYAMGWYRQAPGKERELVAAITSGGSTYYADSVKGRFTLSRDIAKNTVYLQMNSLKPEDTAVYYCNAYYTYRFNYWGQGTQVTVSS | high polyreactivity
QVQLVESGGGLVQAGGSLRLSCAASGSTFAYNALGWYRQAPGKERELVAAIDINDGNTYYADSVKGRFTISRDTAKNTVNLQINSLKPEDTAVYYCAAEYFYPYYGAMDYWGQGTQVTVSS | low polyreactivity
QVQLQESGGGLVQAGGSLRLSCAASGSIFLFYTMGWYRQAPVKEREFVAGITLGTTTYNADSVKGRFTISRDNVKNTVYLQMNSLKPEDTAVYYCAVAVGHYTEFWYWGQGTQVTMSS | high polyreactivity
QVQLVESGGGLVQAGGSLRLSCAASGRTLFFYAMGLYRQAPGKERELVAAISSSGTRTYYADSVKGRFTISRDNAKNTVYLQMNSLIPEDTAVYYCNKVKYYRTGGMEYWGQGTQVTVSS | high polyreactivity
QVQLVESGGGLVQAGGSLRLSCAASGSTFYKYAMGWYRQAAGKERELVASISRSGGSTSYADSVKGRFTISRDNAKNTVYLQMNCLKPEDTAVYYCAATWRQHPGSMGYWGQGTQVTVSS | high polyreactivity
QVQLVESAGGLVQAGGSLRLSCAASGSILYKNAMGWYRQAPGKERELVAAIRSGGSTYYADSVKGRFTISRDNAINTVYLQMNSLKPEDTAVYYCYARTFSHGRYDYWGQGTQVTVSS | low polyreactivity
QVQLVESGGGLVQAGGSLRLSCAASGSTLSRYAMGWYRQAPGKERELVAAISRRGGSTFYADSVKGRFTISRDNAKNTVYLQRNSLKPEDTAVYYCAALSNHGYYIRMDYWGQGTQVTVSS | high polyreactivity
QVQLVESGGGLVQAGGSLRLSCAASGSTFGFNAMGWYRQAPGKERELLPLFWSGGSTYYADSVKGRFTISRDNAKNTVYLQMYSLKPEDTAVYYCNKDSPPITRYDYWGQGTQVTVSS | low polyreactivity
QDQLVESGGGLVQAGGSLRLSCAASGRIFDIYAMGWYRQAPGKERELVAAITWRGGSTYYADSVKGRFTISRDTAKNTLYLQMNSLKPEDTAVYYCAVDFITPRGSYYWGQGTQVTVSS | low polyreactivity
QVQLVESGGGLVQAGGSLRLSSAASGITFSKNAMGRYRQAPGKERELVAAISNSGGSTYYADSVKGRFTISRDNAKNTVYLQMNSVNPEDTAVYYCASDGGYAYGYNHWGQGTQVTVSS | low polyreactivity
QVQLVESGGGLVQAGGSLRLSCAASGFIFKIYTMGWYRQAPGKERELVAAITRRGGRTFYADSVKGRFTISRDNAKNTVYLQMNSLKPEDTAVYYCNAGTKYGTYIATGALKHDYWGQGTQVTVSS | low polyreactivity
